Data from PMC12167710.

B1: anti-human λ VHH (HuFab lambda 1) (VHH)
VHH: QVQLQDSGGGLVQPGGSLRLSCAASGFTLDYYAIGWFRQAPGKEREGVSCISSSDGSSDGYTYYADSVKGRFTISRDNAKNTVYLQMNNLKPEDTAVYYCAARLFGVATTDPSYFDSWGQGTQVTVSS
B2: anti-mouse κ VHH (TP1170) (VHH)
VHH: QVQLVESGGGWVQPGGSLRLSCAASGFTFSDTAMMWVRQAPGKGREWVAAIDTGGGYTYYADSVKGRFTISRDNAKNTLYLQMNSLKPEDTARYYCAKTYSGNYYSNYTVANYGTTGRGTLVTVSS

Columns and labels:
[1] = biological target: recombinant human IgG1λ isotype control antibody (clone AbD00264_hIgG1) (human)
[2] = biological target: recombinant mouse IgG1κ isotype control antibody (clone P3.6.2.8.1) (mouse)

Binder | Kd [1] | Kd [2]
B1 | 1.35 nM | 
B2 |  | 0.0167 nM
